Drawing on the Immune Epitope Database (IEDB), this text covers Kd and IC50 for 39 sequences.

One test concerns the target HLA-A*32:01. Put plainly: IEDB peptide-MHC binding, purified MHC/competitive/radioactivity; filed as Kd, often an IC50 or EC50 that approximates it; ≥ and ≤ were set here for values at or beyond the usual limits of such assays.
Test [1] addresses HLA-A*03:01. Put plainly: IEDB peptide-MHC binding, purified MHC/direct/fluorescence; filed as Kd, often an IC50 or EC50 that approximates it; ≥ and ≤ were set here for values at or beyond the usual limits of such assays. The settings on record: source organism: Campylobacter jejuni RM1221.
The target of test [2] is HLA-A*11:01. The test is described as above. The settings on record: source organism: Campylobacter jejuni RM1221.
The target of the next test is HLA-B*51:01. The experiment in a line: IEDB peptide-MHC binding, purified MHC/competitive/radioactivity; filed as Kd, often an IC50 or EC50 that approximates it; ≥ and ≤ were set here for values at or beyond the usual limits of such assays.
Another test concerns the target HLA-B*53:01. The test is described as above.
Another test has as its target HLA-B*44:02. The test is described as above.
Another test deals with HLA-B*44:03. Described as above.
Another test deals with HLA-B*40:01. The experiment in a line: IEDB peptide-MHC binding, purified MHC/direct/fluorescence; filed as Kd, often an IC50 or EC50 that approximates it; ≥ and ≤ were set here for values at or beyond the usual limits of such assays. To be noted: source organism: Mycobacterium tuberculosis.
In test [3] the target is HLA-A*24:02. Put plainly: IEDB peptide-MHC binding, purified MHC/competitive/fluorescence; ≥ and ≤ were set here for values at or beyond the usual limits of such assays. The settings on record: source organism: Zaire ebolavirus.
The target of a further test is HLA-A*02:01. Described as above. To be noted: source organism: Zaire ebolavirus.
In the next test the target is HLA-A*02:03. The experiment in a line: IEDB peptide-MHC binding, purified MHC/competitive/radioactivity; filed as Kd, often an IC50 or EC50 that approximates it; ≥ and ≤ were set here for values at or beyond the usual limits of such assays. To be noted: source organism: Dengue virus 4 Philippines/H241/1956.
Another test addresses HLA-A*01:01. Described as above. To be noted: source organism: Triticum aestivum.
Test [4] deals with HLA-A*03:01. The test is described as above. The settings on record: source organism: Triticum aestivum.
The target of test [5] is HLA-A*11:01. The test is described as above. To be noted: source organism: Triticum aestivum.
For the next test, the target named is HLA-A*23:01. The description is as above. To be noted: source organism: Triticum aestivum.
In test [6] the target is HLA-A*24:02. The test is described as above. To be noted: source organism: Triticum aestivum.
The target of a further test is HLA-A*26:01. Described as above. To be noted: source organism: Triticum aestivum.
Another test addresses HLA-A*29:02. The description is as above. To be noted: source organism: Triticum aestivum.
A further test deals with HLA-A*30:02. The description is as above. To be noted: source organism: Triticum aestivum.
The next test concerns the target HLA-A*31:01. The test is described as above. The settings on record: source organism: Triticum aestivum.
The next test concerns the target HLA-A*33:01. The test is described as above. To be noted: source organism: Triticum aestivum.
A further test has as its target HLA-A*68:01. The description is as above. The settings on record: source organism: Triticum aestivum.
[7] abbreviates: source organism: Dengue virus 4 Philippines/H241/1956.
Where [8] appears, read: source organism: Dengue virus 3 Martinique/1243/1999.
Setting [9] is: source organism: Dengue virus 1 Brazil/97-11/1997.
Setting [10] is: source organism: Dengue virus 2 Peru/IQT2913/1996.
Where [11] appears, read: source organism: Vaccinia virus WR.
Where [12] appears, read: source organism: Dengue virus 2 Jamaica/1409/1983.

Broadly, the Kd is the concentration at which binding is half-saturated. Turning to KTTAKEVAL, in the test with HLA-A*32:01 (setting [7]), the Kd was at least 21.1 µM.

Regarding KVSDSNLHK, the Kd was determined as 0.19 µM in the test with HLA-A*03:01 [1] and 0.0046 µM with HLA-A*11:01 [2].

Consider LAGVSLLPV, for which, in the test with HLA-B*51:01 (setting [8]), the Kd was 1.91 µM.

With LALREFKEF, the Kd in the test with HLA-B*53:01 (setting [9]) came to 1.73 µM.

Take LPMTVAAMG: in the test with HLA-B*53:01 (source organism: Dengue virus 3 Sri Lanka/1266/2000), the equilibrium dissociation constant (Kd) was 3.54 µM.

Regarding LPVWLAYKV, the Kd was found to be 0.515 µM in the test with HLA-B*51:01 (setting [10]) and 0.157 µM in the test with HLA-B*53:01 (setting [10]).

Take LTGTFVTAF: the Kd in the test with HLA-A*32:01 (setting [11]) was found to be 0.00881 µM.

With MEHKYSWKSW, the figures for the Kd with HLA-A*32:01 (setting [9]), with HLA-B*44:02 (setting [9]) and with HLA-B*44:03 (setting [9]) were 2.04 µM, 0.0112 µM and 0.137 µM, respectively.

As for MGEDGCWYGM, the Kd with HLA-A*32:01 (setting [8]) was at least 36.4 µM.

With NEGIMAIGI, the results for the Kd in the test with HLA-B*44:02 (setting [9]) and with HLA-B*44:03 (setting [9]) were 0.0188 µM and 0.109 µM, respectively.

Take NEIRALMAL: in the test with HLA-B*40:01, the Kd came out at 0.0182 µM.

For the sequence NELNYILWE, in the test with HLA-B*44:03 (setting [8]), the Kd was determined as 0.27 µM.

Consider NESDPEGALW, for which the values for the Kd with HLA-B*44:02 (setting [9]) and in the test with HLA-B*44:03 (setting [9]) were 0.0266 µM and 0.134 µM, respectively.

As to NVAYGAVSF, in the test with HLA-A*32:01 (setting [11]), the Kd was determined as 0.136 µM.

One may read the IC50 as the point on the concentration scale where inhibition reaches its midpoint. Lower therefore signals inhibition by little substance. PFDAVLYYH returned a half-inhibitory concentration (IC50) with HLA-A*24:02 [3] of 4.69 µM.

For the sequence QILASILSI, the Kd with HLA-A*32:01 (setting [11]) is 0.0221 µM.

For QILLMRTTW, in the test with HLA-A*32:01 (setting [9]), the Kd is 0.022 µM.

For the sequence QPTELKYSW, the Kd in the test with HLA-B*53:01 (setting [12]) stood at 0.011 µM.

As to QPTELRYSW, in the test with HLA-B*53:01 (setting [10]), the Kd turned out to be 0.0526 µM.

QRWGGTCHI registered an IC50 with HLA-A*24:02 [3] of 43.3 µM.

In the test with HLA-A*24:02 [3], QTQSRPIQN had a 50% inhibitory concentration (IC50) of at least 128 µM.

As for RHLIFSYAF, the Kd with HLA-A*32:01 (setting [11]) stood at 0.0136 µM.

Take RTFLIDLAF: the dissociation constant (Kd) with HLA-A*32:01 (setting [11]) was determined as 0.00048 µM.

For RTFNRTHYW, the Kd in the test with HLA-A*32:01 (setting [11]) turned out to be 0.000243 µM.

RTLAAMPEE: the results for the IC50 in the test with HLA-A*02:01 and with HLA-A*24:02 [3] were at least 351 µM and 6.75 µM, respectively.

As for RTYGVNYTF, in the test with HLA-A*32:01 (setting [11]), the Kd turned out to be 0.000261 µM.

RVLFNNFKI: the Kd with HLA-A*32:01 (setting [11]) is 0.000885 µM.

As to SHLTTLATI, the IC50 with HLA-A*02:01 was 13.2 µM; with HLA-A*24:02 [3] it was 0.402 µM.

With SQQKADWIPL, the Kd with HLA-A*32:01 (setting [12]) is 2.79 µM.

Turning to TLYAVATTI, the Kd worked out at 0.0112 µM with HLA-A*02:03 and 0.356 µM with HLA-A*32:01 (setting [7]).

As for TPEGIIPSMF, in the test with HLA-B*53:01 (setting [12]), the Kd is 0.417 µM.

Regarding TTELRTFSI, the IC50 in the test with HLA-A*02:01 came out at 68.3 µM; in the test with HLA-A*24:02 [3] it was 12.2 µM.

For the sequence TTQTSALSI, the Kd with HLA-A*32:01 (setting [11]) stood at 0.145 µM.

In the case of TVMAFHLTT, in the test with HLA-A*32:01 (setting [10]), the Kd is 19.2 µM.

For the sequence VEPGQLKLNW, the Kd is 0.389 µM in the test with HLA-B*44:02 (setting [12]) and 0.0632 µM in the test with HLA-B*44:03 (setting [12]).

In the test with HLA-A*24:02 [3], VNNLEHGLF showed an IC50 of 25.4 µM.

On to VSFQQPLQQY, for which the Kd with HLA-A*01:01 is 0.0385 µM; in the test with HLA-A*03:01 [4], 2.34 µM; with HLA-A*11:01 [5] it was 0.138 µM; with HLA-A*23:01, at least 42.4 µM; in the test with HLA-A*24:02 [6], at least 70.3 µM; with HLA-A*26:01, at least 43 µM. Also, the dissociation constant (Kd) with HLA-A*29:02 is 2.84 µM; in the test with HLA-A*30:02 it was 6.09 µM; with HLA-A*31:01, at least 70 µM; with HLA-A*33:01, at least 70 µM; with HLA-A*68:01, at least 70.2 µM.

For WPLSKMDIGV, the Kd with HLA-B*51:01 (setting [10]) was 2.67 µM.

With YAPFARLLN, the IC50 was at least 87.8 µM in the test with HLA-A*02:01 and 19.3 µM with HLA-A*24:02 [3].
